Assay results taken from patent US7981863B2, “Treatment of Parkinson's disease with PDGF” (Neuronova AB, priority 2001, dated 2011).

Assays:
[1] = system: cultured, non-adherent mouse neurospheres; experiment: Intracellular ATP assay, proliferation of cultured mouse neurospheres; type: cell-based; conditions: growth media supplemented with B27; 1 nM-0.0005 nM; 3 days of treatment; FIG. 1
Protocol: The anterior lateral wall of the lateral ventricle of 5-6 week old mice was enzymatically dissociated in 0.8 mg/ml hyaluronidase and 0.5 mg/ml trypsin in DMEM containing 4.5 mg/ml glucose and 80 units/ml DNase at 37° C. for 20 min. The cells were gently triturated and mixed with three volumes of Neurosphere medium (DMEM/F12, B27 supplement, 125 mM HEPES pH 7.4) containing 20 ng/ml EGF (unless otherwise stated), 100 units/ml penicillin and 100 μg/ml streptomycin. After passing through a 70 μm strainer, the cells were pelleted at 160×g for 5 min. The supernatant was subsequently removed and the cells resuspended in Neurosphere medium supplemented as above, plated out in culture dishes and incubated at 37° C. Neurospheres were ready to be split approximately 7 days after plating.
To split the neurospheres, cells were collected by centrifugation at 160×g for 5 min. The conditioned supernatant (conditioned medium) was removed and saved. The neurospheres were resuspended in 0.5 ml Trypsin/EDTA in HBSS (1×), incubated at 37° C. for 2 min and triturated gently to aid dissociation. Following a further 3 min incubation at 37° C. and trituration, 3 volumes of ice cold Neurosphere medium medium w/o EGF were added to stop further trypsin activity. […]
After 3 days of treatment, intracelluar ATP was measured using the ATP SL kit (Biothema) according to the manufacturer's instructions.

6-OHDA Lesioned Rats = experiment: i.c.v. infusion in 6-OHDA lesioned rats, BrdU / NeuN labelling; type: in vivo, rat
Protocol: Animal handling and surgical procedures were carried out according to the ethical and regulatory permits set forth by Jordbruksverket and Lund University. Adult female Sprague-Dawley rats (B&K Universal AB) rats weighing 220-250 g, were housed in pairs with a 12 h light-dark cycle with free access to food and water. To lesion the substantia nigra, rats were fixed into a stereotaxic frame and 6-OHDA ([…] in 0.02% ascorbate saline, Sigma) was injected at a rate of 1 μl/min in 2 deposits of 2 and 2.5 μl into the right ascending mesostriatal forebrain bundle at the following coordinates: 4.4 mm caudal to bregma, 1.2 mm lateral to midline, 7.8 mm below dura; 4.0 mm caudal, 0.8 mm lateral, 8.0 mm below dura, respectively (Paxinos and Watson, 1998). Three weeks after 6-OHDA injections, the completeness of the lesion was assessed with the amphetamine-induced rotation test. D-methylamphetamine (2.5 mg, i.p.) was injected 5 min prior to placing the rat in an automated rotormeter bowl that measured the number of rotations over 90 min.
Before implantation, an Alzet Model 2002 osmotic minipump (200 μl; flow rate: 0.5 μl/h, 12 μl/day) was prefilled with 200 μl of compound solution (see below) and placed in a NaCl (0.9%) solution warmed in water bath (37° C.) 36 hrs before implantation. Rats were anesthetized with halothane in a mixture of nitrous oxide/oxygen (70:30) and maintained with 2-3% halothane. For implantation, rats were placed in a stereotaxic frame and the cannula of the Alzet Brain Infusion kit II was placed into the right lateral ventricle (coordinates: AP=−0.3 mm posterior bregma, L=1.5 mm lateral to satura sagittalis, 4.5 mm the dura; Paxinos and Watson, 1998), and secured to the skull with screws and dental cement. The minipump was then placed subcutaneously in the mid-scapular region. The scalp was treated with lidocaine gel before suturing. Twelve days after insertion, the rats were briefly anaesthetized with halothane in order to remove the pump. Removed pumps had the remaining solution volume and weight recorded.
The effects of infused PDGF-BB and BDNF following 6-OHDA lesions were investigated at 2 different time points: at 12 days or 5 weeks after minipump insertion. Rats receiving human PDGF-BB (order # 220-BB-050; 50 μg, R&D Systems) each had 36 ng/d of PDGF dissolved in 0.1 M PBS (3 μg/ml). Rats receiving human recombinant BDNF (order # 248-BD-025; 25 μg, R&D Systems) each had 12 ng/d of BDNF dissolved in 0.1 M PBS (1 μg/ml). BrdU was co-administered with the compound solution in the minipumps by dissolving it into the 0.1 M PBS medium. Control rats received only BrdU/PBS infusions.
Brain tissue was obtained by anesthetizing the rat and transcardially perfusing with 0.9% saline followed by 4% paraformaldehyde (PFA). Brains were stored PFA for 2 hours, then transferred to 20% sucrose PBS and sectioned coronally on a sledge microtome at 30 μm thickness. Free-floating sections were stored in Walter's antifreeze solution at 4° C. until staining.
Following blocking, incubation of monoclonal rat anti-BrdU antibody (Harlan Sera Lab, UK) in 2% blocking solution occurred at a dilution of 1:100 at 4° C. for 36 hrs. The sections were then incubated with biotin-horse-[…] antibody (1:200) (Vector, CA) in 2% blocking solution for 2 hr and visualized with DAB-NiCl Vectastain Elite kit. The procedure for doubling labeling of BrdU with NeuN or TH was similar, except that a monoclonal rat anti-BrdU antibody (1:100; Sigma, Sweden) was incubated either with a monoclonal mouse anti-NeuN antibody (1:100; Chemicon, USA) or with a monoclonal anti-TH antibody (1:1000; Pelfreeze) in the appropriate 2% blocking solution in the dark for 36 to 48 hrs. For immunofluorescent visualization, sections were incubation in secondary antibodies: Cy3-conjugated donkey anti-rat (1:200; Jackson ImmunoResearch, PA) for BrdU; a biotinylated horse anti-mouse antibody (1:200; BA2001, Vector, CA) for NeuN; and a FITC-conjugated goat anti-rat (1:200;) for TH. […]

B1: PDGF-BB: human recombinant PDGF-BB, platelet derived growth factor B-chain homodimer (protein)
chain: SLGSLTIAEPAMIAECKTRTEVFEISRRLIDRTNANFLVWPPCVEVQRCSGCCNNRNVQCRPTQVQLRPVQVRKIEIVRKKPIFKKATVTLEDHLACKCETVAAARPVT
[1]
  proliferative effect (intracellular ATP): concentration dependent proliferative effect
6-OHDA Lesioned Rats; 5 weeks, FIG. 15
  absolute number of BrdU/NeuN double labelled cells in the striatum: significantly more neurons
6-OHDA Lesioned Rats; 12 days after infusion, compared to PBS infusion, PDGF 36 ng/d, BDNF 12 ng/d
  numbers of BrdU labelled cells in the denervated striatum: significantly elevated
6-OHDA Lesioned Rats; 12 days after infusion, compared to PBS treatment
  numbers of BrdU labelled cells in the lesioned substantia nigra: significantly elevated
6-OHDA Lesioned Rats; Week 5, no statistically significant differences
  BrdU cells in the striatum co-labelled with NeuN (proportion of newly generated neurons): 20.9%
